Assay [1] has as its target T1, Hepatocyte Growth Factor Receptor (HGFR, Met receptor), full length, endogenous in human tumor cells (GTL-16) (human, UniProt P08581 25-1390).
T1 construct: whole, on cells; The mature receptor is a disulfide-linked alpha/beta heterodimer cleaved from one precursor; also called HGF receptor
Kind of assay: immunoprecipitation of Met receptor from cell lysates, Western blot with anti-Met C-terminal antibody (FIG. 11A). As to the method:
FIG. 11: The recombinant AntiMET-R binds with high affinity the extracellular domain of Met. (A) Western blot analysis of cell lysates containing the Met Receptor immunoprecipitated with the AntiMET-R derived from different sources (hybridoma or genetically modified carcinoma cell line). The immunoprecipitation was performed incubating Seph. Prot. G with cell culture supernatants from 1: Hybridoma producing unrelated MAb; 2 Hybridoma producing AntiMET-R MAb; 3: MDA-MB 435 cells infected with lentiviral vector carrying cDNAs for AntiMET-R MAb 4: MDA-MB 435 cells not infected. Samples were subjected to SDS-PAGE under reducing condition and the corresponding filters were probed with an anti-Met antibody directed against the c-Terminal tail of the receptor. (B) Binding assay of the AntiMET-R and the recombinant AntiMET-R to the extracellular domain of the Met Receptor. 96 wells plate coated with purified MET extracellular domain fused to the Fc domain derived from Human Ig (100 ng/well) was incubated with increasing concentrations of purified AntiMET-R or recombinant AntiMET-R (from 0 to 5.5 nM). […] To control the specificity of binding we performed the same assay using wells coated with Fc-Ron (a chimera protein generated fusing the Fc domain of Human Ig to the extracellular domain of the Ron receptor, a protein belonging to the Met receptor family).
A general note: A western blot detects proteins with antibodies after separation by electrophoresis.

For assay [2], the target named is T2, Decoy Met (aminoacids 1-932), soluble recombinant entire extracellular region of human Met, myc- and … (human, UniProt P08581 25-932).
T2 construct: range 25-932; Numbering follows GenBank X54559; also called myc-tagged Decoy Met; Met ectodomain
T2 sequence (P08581 25-932 limits assumed): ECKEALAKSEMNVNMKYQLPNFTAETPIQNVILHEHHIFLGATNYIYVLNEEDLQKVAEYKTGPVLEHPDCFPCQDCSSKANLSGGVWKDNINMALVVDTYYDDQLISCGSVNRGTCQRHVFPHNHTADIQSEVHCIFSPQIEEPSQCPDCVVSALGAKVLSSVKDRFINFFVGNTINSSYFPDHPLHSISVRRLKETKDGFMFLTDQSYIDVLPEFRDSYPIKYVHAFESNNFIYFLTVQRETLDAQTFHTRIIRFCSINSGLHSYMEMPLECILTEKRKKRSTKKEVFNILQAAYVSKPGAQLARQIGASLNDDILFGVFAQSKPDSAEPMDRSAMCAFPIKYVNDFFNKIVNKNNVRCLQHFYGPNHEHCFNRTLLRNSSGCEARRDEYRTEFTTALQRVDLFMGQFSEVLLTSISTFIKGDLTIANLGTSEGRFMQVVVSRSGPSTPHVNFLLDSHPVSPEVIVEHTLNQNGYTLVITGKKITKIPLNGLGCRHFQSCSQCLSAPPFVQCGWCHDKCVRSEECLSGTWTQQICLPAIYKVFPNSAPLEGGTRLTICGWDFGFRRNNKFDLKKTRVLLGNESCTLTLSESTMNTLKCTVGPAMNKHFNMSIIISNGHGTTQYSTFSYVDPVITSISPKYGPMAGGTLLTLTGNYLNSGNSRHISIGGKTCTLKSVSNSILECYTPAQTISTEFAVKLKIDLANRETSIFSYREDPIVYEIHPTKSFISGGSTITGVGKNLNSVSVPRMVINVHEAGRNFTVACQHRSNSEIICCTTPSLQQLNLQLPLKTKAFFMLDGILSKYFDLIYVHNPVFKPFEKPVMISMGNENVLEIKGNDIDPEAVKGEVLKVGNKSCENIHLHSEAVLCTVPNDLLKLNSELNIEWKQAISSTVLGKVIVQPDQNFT
Kind of assay: immunoprecipitation from conditioned medium, Western blot with anti-myc. The source says:
(§1) FIG. 18: AntiMET-R specifically recognizes an epitope located in the IPTs region. Conditioned media of MDA-MB-435 cells transduced with lentiviral vector particles encoding for myc-tagged Decoy Met, myc-tagged SEMA PSI and myc-tagged PSI IPT1-4 were immunoprecipitated with the antiMET-R antibody and detected by Western blot using a biotinylated anti-myc antibody (right panel). Equal amounts of conditioned media were loaded as a control for protein expression (left panel). CTRL: conditioned medium of MDA-MB-435 cells transduced with an empty lentiviral vector. Decoy Met: conditioned medium of MDA-MB-435 cells transduced with a lentiviral vector expressing the entire HGFR extracellular domain. PSI-IPT: conditioned medium of MDA-MB-435 cells transduced with a lentiviral vector expressing PSI, IPT-1, IPT-2, IPT-3, IPT-4 domains of the HGFR. SEMA-PSI: conditioned medium of MDA-MB-435 cells transduced with a lentiviral vector expressing Sema and PSI domains of the HGFR. On the right molecular weight in KD are shown.
(§2) Conditioned media of MDA-MB-435 cells transduced with myc-tagged Decoy Met, SEMA PSI and PSI IPT were immunoprecipitated with the AntiMET-R antibody and detected by Western blot using a biotinylated anti-myc antibody (FIG. 18, right panel). […]

Assay [3] has as its target T3, SEMA PSI (aminoacids 1-562), truncated form of Decoy Met containing the SEMA domain and the PSI region, myc- … (human, UniProt P08581 25-562).
T3 construct: range 25-562; also called myc-tagged SEMA PSI
The assay is described as above.
Description: as §1, §2

Assay [4] concerns the target T1, Hepatocyte Growth Factor Receptor …. Kind of assay: flow cytometry on GTL-16 cells (50 ug/ml antibody) and immunofluorescence on fixed GTL-16 cells (2.5 ug/ml). How it is done:
For Flow cytometry analysis, 10⁵ GTL-16 cells were detached with PBS-EDTA 0.025%, washed with PBS and incubated with 50 μg/ml of antiMet-R antibody or the same amount of isotype control mouse Ig for 15′ RT. After 2 washes with PBS, the cells were incubated with 15 μg/ml of FITC conjugated Goat anti-mouse Ig (Jackson Immunoresearch laboratories) for 15′ RT. Cells were than washed, re-suspended in PBS-5% BSA and analysed by flow cytometry (Becton Dickinson, Mountain View, Calif.). GTL-16 cells were fixed in methanol:aceton (3:1) for 5′ on ice then blocked with 2% goat serum in PBS for 30′ at RT. […] Analysis of the samples was performed with a fluorescence microscope (DM-IRB, Leica Microsystems).
GTL-16 cells, a human gastric carcinoma cell line, were incubated with the AntiMET-R antibody. […] Infact the mean of fluorescence intensity in cells labelled with the antiMet-R antibody was increased respect to ctrl cells (FIG. 20, panel A). GTL-16 cells were also incubated, after fixation, with the antiMet-R antibody to perform an immunofluoresce analysis.

T1 sequence (P08581 25-1390): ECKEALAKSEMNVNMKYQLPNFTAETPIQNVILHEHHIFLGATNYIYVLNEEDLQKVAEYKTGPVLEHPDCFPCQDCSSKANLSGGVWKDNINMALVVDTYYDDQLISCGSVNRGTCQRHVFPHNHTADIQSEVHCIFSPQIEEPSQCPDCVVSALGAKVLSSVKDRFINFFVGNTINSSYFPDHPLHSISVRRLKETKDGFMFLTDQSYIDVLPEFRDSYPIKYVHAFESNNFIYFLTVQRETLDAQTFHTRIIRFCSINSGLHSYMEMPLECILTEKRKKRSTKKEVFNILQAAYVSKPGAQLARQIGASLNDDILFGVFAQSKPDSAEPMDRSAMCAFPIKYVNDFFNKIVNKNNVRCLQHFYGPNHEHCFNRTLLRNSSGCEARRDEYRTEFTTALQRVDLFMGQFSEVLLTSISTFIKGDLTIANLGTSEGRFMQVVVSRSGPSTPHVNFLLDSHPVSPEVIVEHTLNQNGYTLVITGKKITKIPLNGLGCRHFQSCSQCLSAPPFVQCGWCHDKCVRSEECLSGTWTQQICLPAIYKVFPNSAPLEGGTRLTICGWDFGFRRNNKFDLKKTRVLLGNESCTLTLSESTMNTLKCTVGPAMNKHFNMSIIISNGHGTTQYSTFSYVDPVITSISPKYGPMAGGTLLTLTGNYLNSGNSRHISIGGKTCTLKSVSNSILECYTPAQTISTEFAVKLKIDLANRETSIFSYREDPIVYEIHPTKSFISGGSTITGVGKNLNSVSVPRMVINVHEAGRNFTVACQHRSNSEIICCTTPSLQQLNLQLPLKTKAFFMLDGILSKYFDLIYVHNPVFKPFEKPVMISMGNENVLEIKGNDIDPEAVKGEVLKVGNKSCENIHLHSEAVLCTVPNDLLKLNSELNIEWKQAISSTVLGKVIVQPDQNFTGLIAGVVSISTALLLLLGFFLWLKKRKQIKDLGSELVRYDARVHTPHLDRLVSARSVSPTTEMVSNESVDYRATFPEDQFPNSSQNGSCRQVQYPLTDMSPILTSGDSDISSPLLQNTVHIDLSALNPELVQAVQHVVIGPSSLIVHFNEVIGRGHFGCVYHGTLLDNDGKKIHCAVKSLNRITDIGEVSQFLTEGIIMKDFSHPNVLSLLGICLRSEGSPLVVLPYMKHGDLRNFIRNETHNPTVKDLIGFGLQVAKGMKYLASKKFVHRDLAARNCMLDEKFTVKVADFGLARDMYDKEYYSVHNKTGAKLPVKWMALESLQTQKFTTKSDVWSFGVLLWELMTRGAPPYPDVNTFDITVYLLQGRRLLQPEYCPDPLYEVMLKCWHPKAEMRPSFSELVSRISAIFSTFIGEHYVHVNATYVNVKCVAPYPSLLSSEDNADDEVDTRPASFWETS
T3 sequence (P08581 25-562 limits assumed): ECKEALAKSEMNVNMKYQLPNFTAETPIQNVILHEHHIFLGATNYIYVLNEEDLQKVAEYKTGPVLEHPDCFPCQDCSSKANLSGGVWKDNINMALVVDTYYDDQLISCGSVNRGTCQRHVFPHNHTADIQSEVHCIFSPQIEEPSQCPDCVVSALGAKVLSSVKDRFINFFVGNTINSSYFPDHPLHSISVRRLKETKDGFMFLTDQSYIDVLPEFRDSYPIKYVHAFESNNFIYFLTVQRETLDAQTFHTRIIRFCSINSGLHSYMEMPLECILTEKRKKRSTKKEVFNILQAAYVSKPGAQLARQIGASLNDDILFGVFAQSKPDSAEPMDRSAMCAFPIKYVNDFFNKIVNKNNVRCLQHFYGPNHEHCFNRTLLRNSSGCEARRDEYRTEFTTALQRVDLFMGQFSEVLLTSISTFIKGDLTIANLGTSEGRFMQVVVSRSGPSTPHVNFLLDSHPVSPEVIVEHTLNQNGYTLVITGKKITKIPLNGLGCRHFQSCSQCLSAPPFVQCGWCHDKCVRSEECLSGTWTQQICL

B1: recombinant AntiMET-R produced by carcinoma cell lines transduced with the bi-directional lentiviral vector carrying AntiMET-R cDNAs (antibody, mouse IgG2a, kappa, V domains shown)
VH: QVQLQQPGTELVKPGASVKLSCKASGYTFTSYWIHWVKQRPGQGLEWIGEINPSSGRTNYNEKFKNKVTVTVDKSSTTAYMQLSNLTSEDSAVYYCASRGYWGQGTTLTVSS
VL: DIVLTQSPASLAVSLGQRATISCKASQSVDYDGGSYMSWFQQRPGQPPKLLISAASNLESGIPARFSGSGSGTDFTLNIHPVEEEDVATYYCQQSYEDPLTFGAGTKLELKR
For the molecule B1, the binding result in assay [1] is reported as “binds”.

B2: AntiMET-R, anti-Met monoclonal antibody produced by the hybridoma cell line ICLC PD 05006 (antibody, mouse IgG2a, kappa, V domains shown)
VH: QVQLQQPGTELVKPGASVKLSCKASGYTFTSYWIHWVKQRPGQGLEWIGEINPSSGRTNYNEKFKNKVTVTVDKSSTTAYMQLSNLTSEDSAVYYCASRGYWGQGTTLTVSS
VL: DIVLTQSPASLAVSLGQRATISCKASQSVDYDGGSYMSWFQQRPGQPPKLLISAASNLESGIPARFSGSGSGTDFTLNIHPVEEEDVATYYCQQSYEDPLTFGAGTKLELKR
notes: Mouse monoclonal antibody from a hybridoma; They may include leader peptides; also called purified AntiMET-R
For the molecule B2, the binding result is on record as “binds” in assay [2], “no binding” in assay [3] and “binds” in assay [4].

Source of the values: patent US20090285807A1 (METHERESIS TRANSLATIONAL RESEARCH, published 2009).
